T1: Human Siglec-5 (human, UniProt O15389 17-551)
T1 construct: CHO HuSiglec-5 cell line; also called HuSiglec-5
T1 sequence: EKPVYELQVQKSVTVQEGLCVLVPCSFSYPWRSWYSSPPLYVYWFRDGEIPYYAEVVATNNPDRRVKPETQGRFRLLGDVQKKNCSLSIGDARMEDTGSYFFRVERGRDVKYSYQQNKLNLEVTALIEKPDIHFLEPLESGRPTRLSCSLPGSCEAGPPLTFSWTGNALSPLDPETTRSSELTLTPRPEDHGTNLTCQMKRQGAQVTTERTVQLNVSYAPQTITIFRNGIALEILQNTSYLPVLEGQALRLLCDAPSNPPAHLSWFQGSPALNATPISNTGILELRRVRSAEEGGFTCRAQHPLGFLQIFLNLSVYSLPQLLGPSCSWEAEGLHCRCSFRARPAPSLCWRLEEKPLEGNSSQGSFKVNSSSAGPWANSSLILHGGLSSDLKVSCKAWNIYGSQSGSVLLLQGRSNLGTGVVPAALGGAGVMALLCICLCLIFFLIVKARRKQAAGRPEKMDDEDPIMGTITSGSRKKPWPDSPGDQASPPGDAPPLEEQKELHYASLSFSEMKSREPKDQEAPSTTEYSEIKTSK

T2: Human Siglec-10 (human, UniProt Q96LC7 17-697)
T2 construct: CHO HuSiglec-10 cell line; also called HuSiglec-10
T2 sequence: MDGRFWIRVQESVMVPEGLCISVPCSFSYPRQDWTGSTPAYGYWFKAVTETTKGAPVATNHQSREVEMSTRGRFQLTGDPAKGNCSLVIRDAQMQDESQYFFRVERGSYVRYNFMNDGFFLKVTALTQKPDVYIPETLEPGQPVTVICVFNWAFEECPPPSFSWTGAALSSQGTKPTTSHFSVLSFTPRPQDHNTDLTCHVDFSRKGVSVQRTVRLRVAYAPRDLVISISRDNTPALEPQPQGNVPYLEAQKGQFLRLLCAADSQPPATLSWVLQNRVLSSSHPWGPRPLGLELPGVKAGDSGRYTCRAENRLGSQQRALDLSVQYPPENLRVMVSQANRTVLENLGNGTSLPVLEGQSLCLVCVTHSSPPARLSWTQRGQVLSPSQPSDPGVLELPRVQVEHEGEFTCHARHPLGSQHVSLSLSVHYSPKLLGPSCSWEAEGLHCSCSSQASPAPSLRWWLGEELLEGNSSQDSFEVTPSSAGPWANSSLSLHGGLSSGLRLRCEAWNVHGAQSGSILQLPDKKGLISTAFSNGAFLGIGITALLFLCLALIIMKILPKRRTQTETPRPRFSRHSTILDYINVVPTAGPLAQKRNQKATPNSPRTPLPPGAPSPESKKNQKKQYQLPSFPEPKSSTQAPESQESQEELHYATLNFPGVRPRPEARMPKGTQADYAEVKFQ

T3: Human Siglec-11 (human, UniProt Q96RL6 29-698)
T3 construct: CHO HuSiglec-11 cell line; also called HuSiglec-11
T3 sequence: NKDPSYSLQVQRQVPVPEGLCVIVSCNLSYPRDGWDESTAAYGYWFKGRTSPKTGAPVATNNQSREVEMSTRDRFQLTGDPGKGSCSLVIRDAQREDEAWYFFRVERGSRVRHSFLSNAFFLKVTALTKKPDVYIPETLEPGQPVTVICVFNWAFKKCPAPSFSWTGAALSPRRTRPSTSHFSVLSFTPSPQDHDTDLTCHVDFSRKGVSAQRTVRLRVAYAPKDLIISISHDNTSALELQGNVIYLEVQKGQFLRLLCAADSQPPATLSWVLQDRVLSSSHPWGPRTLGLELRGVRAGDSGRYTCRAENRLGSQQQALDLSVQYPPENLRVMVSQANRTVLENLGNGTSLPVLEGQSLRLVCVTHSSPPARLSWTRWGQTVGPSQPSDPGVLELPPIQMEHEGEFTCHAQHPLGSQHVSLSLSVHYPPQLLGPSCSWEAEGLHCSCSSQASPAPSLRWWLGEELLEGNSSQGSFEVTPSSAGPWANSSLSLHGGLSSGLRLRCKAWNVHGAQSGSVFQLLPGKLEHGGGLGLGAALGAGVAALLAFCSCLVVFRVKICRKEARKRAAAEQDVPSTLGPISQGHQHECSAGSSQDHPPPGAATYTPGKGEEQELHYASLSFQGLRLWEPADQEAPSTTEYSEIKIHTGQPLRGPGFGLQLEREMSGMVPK


What was measured:
Human Siglec-3 = target: T4, Human Siglec-3 (human, UniProt P20138 18-364); assay: flow cytometry on CHO HuSiglec-3 cell line
T4 construct: CHO HuSiglec-3 cell line; also called HuSiglec-3; CD33
Method: (§1) Cells expressing Siglec-3, -5, -6, -8, -10, -11 and -12 were generated and a representative subset of the cross-reactive Siglec-7/9 antibodies were tested by flow cytometry for binding to the cells. Amino acid sequences and Genbank references for Siglec polypeptides used are shown below in Table 1.
(§2) Briefly, HuSiglec-expressing CHO cell lines (that expressed one of the Siglecs) were used.

Human Siglec-5 = target: T1, Human Siglec-5; assay: flow cytometry on CHO HuSiglec-5 cell line
Method: as §1, §2

Human Siglec-6 = target: T5, Human Siglec-6 (human, UniProt O43699 27-453); assay: flow cytometry on CHO HuSiglec-6 cell line
T5 construct: CHO HuSiglec-6 cell line; also called HuSiglec-6
Method: as §1, §2

Human Siglec-8 = target: T6, Human Siglec-8 (human, UniProt Q9NYZ4 17-499); assay: flow cytometry on CHO HuSiglec-8 cell line
T6 construct: CHO HuSiglec-8 cell line; also called HuSiglec-8
Method: as §1, §2

Human Siglec-10 = target: T2, Human Siglec-10; assay: flow cytometry on CHO HuSiglec-10 cell line
Method: as §1, §2

Human Siglec-11 = target: T3, Human Siglec-11; assay: flow cytometry on CHO HuSiglec-11 cell line
Method: as §1, §2

Human Siglec-12 = target: T7, Human Siglec-12 (human, UniProt Q96PQ1 19-595); assay: flow cytometry on CHO HuSiglec-12 cell line
T7 construct: CHO HuSiglec-12 cell line; also called HuSiglec-12
Method: as §1, §2

Human Siglec-7 = target: T8, Human Siglec-7 (human, UniProt Q9Y286 19-467); assay: flow cytometry on Siglec-7-expressing cell line
T8 construct: Expressed on CHO cells (huSiglec-7-expressing CHO cell line); also called huSiglec-7; CD328

Human Siglec-9 = target: T9, Human Siglec-9 (human, UniProt Q9Y336 18-463); assay: flow cytometry on Siglec-9-expressing cell line
T9 construct: Expressed on CHO cells (huSiglec-9-expressing CHO cell line); also called huSiglec-9; CD329
T9 sequence (Q9Y336 18-463): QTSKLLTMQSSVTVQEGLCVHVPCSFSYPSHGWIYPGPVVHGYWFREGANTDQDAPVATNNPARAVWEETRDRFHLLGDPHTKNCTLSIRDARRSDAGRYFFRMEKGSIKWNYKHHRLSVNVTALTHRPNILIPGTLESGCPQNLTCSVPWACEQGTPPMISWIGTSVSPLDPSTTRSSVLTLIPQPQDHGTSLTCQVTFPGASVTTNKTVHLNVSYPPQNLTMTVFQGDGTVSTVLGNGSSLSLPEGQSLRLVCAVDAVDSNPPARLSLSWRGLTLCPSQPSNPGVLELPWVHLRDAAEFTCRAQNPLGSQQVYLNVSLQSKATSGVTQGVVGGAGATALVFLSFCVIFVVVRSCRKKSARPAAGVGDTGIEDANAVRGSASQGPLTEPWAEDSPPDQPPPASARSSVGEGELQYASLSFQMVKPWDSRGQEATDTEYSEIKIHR

T5 sequence (O43699 other isoform, or with tags, fused parts or gaps): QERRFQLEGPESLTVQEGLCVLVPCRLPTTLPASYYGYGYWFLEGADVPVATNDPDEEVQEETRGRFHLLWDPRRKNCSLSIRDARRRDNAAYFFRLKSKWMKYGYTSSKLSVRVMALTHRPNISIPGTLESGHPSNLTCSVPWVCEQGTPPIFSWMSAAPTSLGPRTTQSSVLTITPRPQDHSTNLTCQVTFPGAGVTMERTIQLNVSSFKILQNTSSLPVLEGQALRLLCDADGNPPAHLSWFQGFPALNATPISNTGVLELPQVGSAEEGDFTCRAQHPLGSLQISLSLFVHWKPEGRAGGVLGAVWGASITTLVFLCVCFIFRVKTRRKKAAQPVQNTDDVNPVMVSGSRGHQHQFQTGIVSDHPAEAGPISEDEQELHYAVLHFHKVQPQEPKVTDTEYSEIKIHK
T4 sequence (P20138 18-364 R69G): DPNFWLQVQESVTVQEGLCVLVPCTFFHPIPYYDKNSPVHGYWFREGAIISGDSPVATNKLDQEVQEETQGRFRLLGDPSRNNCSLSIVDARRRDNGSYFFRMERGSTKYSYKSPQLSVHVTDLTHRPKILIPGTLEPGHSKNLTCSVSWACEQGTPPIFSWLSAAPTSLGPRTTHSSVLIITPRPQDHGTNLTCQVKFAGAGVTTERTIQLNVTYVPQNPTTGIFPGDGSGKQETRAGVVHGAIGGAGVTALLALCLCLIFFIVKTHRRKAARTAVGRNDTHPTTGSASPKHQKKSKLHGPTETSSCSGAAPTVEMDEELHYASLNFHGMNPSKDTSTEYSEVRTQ
T7 sequence (Q96PQ1 19-595): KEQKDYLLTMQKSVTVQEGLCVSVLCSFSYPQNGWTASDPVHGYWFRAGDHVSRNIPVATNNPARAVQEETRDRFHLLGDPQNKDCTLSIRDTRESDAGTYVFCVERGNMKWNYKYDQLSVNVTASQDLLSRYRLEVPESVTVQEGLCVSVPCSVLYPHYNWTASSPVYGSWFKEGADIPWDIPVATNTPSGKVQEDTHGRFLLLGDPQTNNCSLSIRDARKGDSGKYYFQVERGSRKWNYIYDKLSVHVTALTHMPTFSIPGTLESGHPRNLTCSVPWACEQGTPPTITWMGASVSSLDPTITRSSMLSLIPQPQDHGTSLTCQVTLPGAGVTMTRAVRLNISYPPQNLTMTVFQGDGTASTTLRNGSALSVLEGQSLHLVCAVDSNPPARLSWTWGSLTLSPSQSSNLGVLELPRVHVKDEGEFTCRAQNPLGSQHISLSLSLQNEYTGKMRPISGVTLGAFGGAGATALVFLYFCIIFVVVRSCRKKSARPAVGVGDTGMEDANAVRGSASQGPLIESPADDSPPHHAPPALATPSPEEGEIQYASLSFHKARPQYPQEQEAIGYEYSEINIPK
T8 sequence (Q9Y286 19-467): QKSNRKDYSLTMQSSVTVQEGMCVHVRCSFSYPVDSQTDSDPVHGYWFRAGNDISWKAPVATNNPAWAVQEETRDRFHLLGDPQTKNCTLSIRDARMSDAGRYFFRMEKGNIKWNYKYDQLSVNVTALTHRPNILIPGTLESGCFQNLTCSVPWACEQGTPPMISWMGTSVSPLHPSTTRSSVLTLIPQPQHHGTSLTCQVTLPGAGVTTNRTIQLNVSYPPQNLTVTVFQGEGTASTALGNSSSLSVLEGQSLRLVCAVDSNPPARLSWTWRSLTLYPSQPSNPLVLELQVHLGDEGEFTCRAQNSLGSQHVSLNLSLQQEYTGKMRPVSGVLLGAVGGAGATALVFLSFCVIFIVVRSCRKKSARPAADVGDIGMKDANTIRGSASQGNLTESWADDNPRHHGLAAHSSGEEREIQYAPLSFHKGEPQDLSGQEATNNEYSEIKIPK
T6 sequence (Q9NYZ4 17-499): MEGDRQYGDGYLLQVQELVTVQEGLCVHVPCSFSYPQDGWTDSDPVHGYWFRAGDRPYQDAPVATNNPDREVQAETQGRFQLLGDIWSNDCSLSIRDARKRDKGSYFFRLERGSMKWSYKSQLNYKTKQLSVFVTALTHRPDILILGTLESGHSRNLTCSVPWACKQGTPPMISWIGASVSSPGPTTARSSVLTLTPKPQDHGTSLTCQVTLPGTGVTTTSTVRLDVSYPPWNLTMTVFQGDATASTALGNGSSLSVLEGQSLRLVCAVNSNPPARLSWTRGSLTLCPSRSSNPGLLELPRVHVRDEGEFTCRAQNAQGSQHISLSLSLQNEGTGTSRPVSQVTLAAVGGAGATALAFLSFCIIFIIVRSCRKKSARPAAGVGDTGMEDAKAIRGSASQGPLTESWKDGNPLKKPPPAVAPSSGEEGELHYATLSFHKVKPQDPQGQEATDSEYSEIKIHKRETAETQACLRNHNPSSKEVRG

Binder | binding result (Human Siglec-3) | binding result (Human Siglec-5) | binding result (Human Siglec-6) | binding result (Human Siglec-8) | binding result (Human Siglec-10) | binding result (Human Siglec-11) | binding result (Human Siglec-12) | binding result (Human Siglec-7) | binding result (Human Siglec-9)
antibody 3A11 (antibody, V domains shown, Raised in Balb/c mice; hybridoma supernatants were screened with goat anti-mouse detection, and selected antibodies were also made as chimeric human IgG1 (also with N297Q); also called mAb 3A11) VH: EVQLQQSGTVLARPGASVKMSCKASGYSFTSYWMHWVKQRPGQGLEWIGAIYPGNSDTSYNQKFKDKAKLTAVTSASTAYMELSSLTNEDSAVYYCTTYYRYDGGFDYWGQGTTLTVSS VL: DIQMTQSPKSMSMSVGERVTLSCKASETVGTYVSWYQQKPEQSPKLLIFGASNRNTGVPDRFTGSGSATDFTLTISSVQAEDLADYHCGQSYNYPYTFGGGTKLEIK | no binding | no binding | no binding | no binding | no binding | no binding | no binding | binds | binds
antibody 2B4 (antibody, V domains shown, Mouse-derived; also called mAb 2B4) VH: EVQLQQSGTVLARPGASVKMSCKASGYSFTNYWMHWVKQRPGQGLEWIGAIYPGNSDTSYIQKFKGKAKLTAVTSASTAYMELSSLTNEDSAVYYCTTYYRYDGGFDYWGQGTTLTVSS VL: DIVMTQSPKSMSMSVGERVTLSCKASENVDTYVSWYQQKPDQSPKLLLYGASNRNTGVPDRFTGSGSATDFTLTISNVQAEDLADYHCGQSYSQPYTFGGGTKLEIK | no binding | no binding | no binding | no binding | no binding | no binding | no binding | binds | binds
antibody 1H9 (antibody, V domains shown, Mouse-derived; also called mAb 1H9) VH: QVQLQQSGAELVRPGASVKLSCKAMGNTFTDYEMHWVKQTPVHGLEWIGAIHPGSGGTVYNQKFRGKAALTADKSSSTAYMELSSLTSEDSAVYYCTREVSGTVYWGQGTTLTVSS VL: DIVMTQAAFSNPVTLGTSASISCRSSKSLLHSNGITYLFWYLQKPGQSPQLLIYQMSNLASGVPDRFSSSGSGTDFTLRISRVEAEDVGVYYCAQNLELPWTFGGGTKLEIK | no binding | no binding | no binding | no binding | no binding | no binding | no binding | binds | binds

From patent US20170306014A1 (INNATE PHARMA, published 2017)
